US20230020729A1 (Memorial Sloan Kettering, published 2023)
Substitutions are numbered along the chain they refer to.

B1: ET200-012 scFv (scFv)
scFv: QSVLTQPPSVSAAAGQKVTISCSGSDSNIGNNYVSWYQHLPGTAPKLLIYDVKNRPSGIPDRFSGSKSGSSATLGIAGLQPGDEADYYCGTWDSRLDAYVFGTGTKVTVLGSRGGGGSGGGGSGGGGSLEMAQMQLVQSGAEVKKPGASVKVSCKTSGFPFNIFGITWVRQAPGQGLEWMGWISGYNGNTDYPQKFQGRVTMSTDTSTSTAYMELRNLKSDDTAVYYCARGAYGGMDTWGQGTLVTVSS
notes: VL-linker-VH; screened as scFv phage clone
B2: ET200-013 scFv (scFv)
scFv: QSVVTQPPSVSGAPGQRVTISCTGSTSNIGAGYDVHWYQQLPGTAPKLLIYTNNFRPSGVPDRFSASKSGTSASLAITGLQAEDEADYYCGTWDSSLSAVVFGGGTKLTVLGSRGGGGSGGGGSGGGGSLEMAEVQLVESGTEVKKPGASVKVSCKASGYMFTSYGLNWVRQAPGQGLEWMGWISANNGKTNYAKKFQDRVTMTRDTSTSTGYMELRSLRSDDTAVYYCARHIGGSYFDRWGQGTLVTVSS
notes: as for B1
B3: ET200-014 scFv (scFv)
scFv: SYVLTQPPSVSVAPGKTARITCGGNNIGSKSVHWYQQKPGQAPVLVIYYDSDRPSGIPERFSGSNSGNTATLTISRVEAGDEADYYCQVWDSSSDHYVFGTGTKVTVLGSRGGGGSGGGGSGGGGSLEMAEVQLVETGGGLVQPGGSLRLSCAASGFTFSSYAMSWVRQAPGKGLEWVSAISGSDGSTYYADSVKGRFTISRDNSKNTLYLQMNSLRDEDTAVYYCARSHEANLVGDWWGQGTLVTVSS
notes: as for B1
B4: ET200-015 scFv (scFv)
scFv: QSVVTQPPSVSVAPGKTARITCGGNNIGSKSVHWYQQKPGQAPVLVIYYDSDRPSGIPERFSGSNSGNTATLTISRVEAGDEADYYCQVWDSSSDVVFGGGTKLTVLGSRGGGGSGGGGSGGGGSLEMAEVQLVQSGAEVKKPGASVKVSCKASGYTFTSYGISWVRQAPGQGLEWMGWISAYNGNTNYAQKLQGRVTMTTDTSTSTAYMELRSLRSDDTAVYYCARWGGFGAVDHWGQGTLVTVSS
notes: as for B1
B5: ET200-016 scFv (scFv)
scFv: SSELTQDPAVSVALGQTVKITCQGDSLTDYHATWYQQKPGQAPVAVIYATNNRPTGIPDRFSGSSSGNTASLTITGAQAEDEADYYCNSRDSGTDEVLFGGGTKLTVLGSRGGGGSGGGGSGGGGSLEMAEVQLVETGGGLVKPGGSLRLSCAASGFTFSSYSMNWVRQAPGKGLEWVSSISSSSSYIYYADSVKGRFTISRDNAKNSLYLQMNSLRAEDTAVYYCARGQGYDYWGQGTLVTVSS
notes: as for B1
B6: ET200-017 scFv (scFv)
scFv: SYVLTQPPSVSVAPGKTARITCGGNNIGSKSVHWYQQKPGQAPVLVVYDDSDRPSGIPERFSGSNSGNTATLSISRVEAGDEADYYCQVWDSSSDHTVFGTGTKVTVLGSRGGGGSGGGGSGGGGSLEMAQVQLQQWGAGLLKPSETLSLTCAVYGGSFSGYYWSWIRQPPGKGLEWIGEINHSGSTNYNPSLKSRVTISVDTSKNQFSLKLSSVTAADTAVYYCARYYPGMDMWGQGTLVTVSS
notes: as for B1
B7: ET200-018 scFv (scFv)
scFv: QAVLTQPPSTSGTPGQRVTISCSGSSSNIGRNGVNWYQQLPGAAPKVLIYNDNQRPSGVPDRVSGSQSGSSGTLAIDGLRSEDEADYYCAAWDDSLHGVVFGGGTKLTVLGSRGGGGSGGGGSGGGGSLEMAQVQLVQSGAEVKKPGASVKVSCKVSGYTLNELSMHWVRQAPGKGLEWMGGFDPEDGETIYAQKFQGRVTMTEDTSTDTAYMELSSLRSEDTAVYYCARGGYGDSWGQGTLVTVSS
notes: as for B1
B8: ET200-019 scFv (scFv)
scFv: NFMLTQPHSVSESPGKTVTISCTRSSGSIASNYVQWYQQRPGSAPTTVIYEDNQRPSGVPDRFSGSIDSSSNSASLTISGLKTEDEADYYCQSYDSSNSWVFGGGTKLTVLGSRGGGGSGGGGSGGGGSLEMAQVQLVQSGAEVKRPGSSVKVSCTASGGTFSSDAISWVRQAPGQGLEWMGGIIPMFGTANYAQKFQGRVTITADESTSTAYMELSSLRSEDTAVYYCAREGYYYPSAYLGSVLNDISSVYDEWGQGTLVTVSS
notes: as for B1
B9: ET200-020 scFv (scFv)
scFv: QSVVTQPPSVSAAPGQKVTISCSGSTSNIGNNDVSWYQQLPGTAPKLLIYDNNKRPSGIPDRFSGSKSGTSATLGITGLQTGDEADYYCGTWDSSVSASWVFGRGTKLTVLGSRGGGGSGGGGSGGGGSLEMAQVQLVQSGAEVKKPGASVKVSCKASGYTFTSYGISWVRQAPGQGLEWMGWISAYNGNTNYPQKLQGRVTMTTDPSTSTAYMELRSLRSDDTAVYYCARSMTSFDYWGQGTLVTVSS
notes: as for B1
B10: ET200-021 scFv (scFv)
scFv: QSVLTQPPSVSAAPGQKVTISCSGSNSNIGNNYVSWYQQLPGTAPKLLIYDNNKRPSGIPDRFSGSRSGTSATLGITGLQTGDEADYYCGTWNTTVTPGYVFGTGTKVTVLGSRGGGGSGGGGSGGGGSLEMAEVQLVQSGAEVKKPGASVKVSCKASGYTFTSYGISWVRQAPGQGLEWMGWISAYNGNTNYAQKLQGRVTMTTDTSTSTAYMELRSLRSDDTAMYYCARSVYDLDTWGQGTLVTVSS
notes: as for B1
B11: ET200-002 scFv (scFv)
scFv: NFMLTQPHSVSESPGKTVTISCTRSSGSIASNYVQWYQQRPGSAPTTVIYEDNQRPSGVPDRFSGSIDSSSNSASLTISGLKTEDEADYYCQSYDSSNSVVFGGGTKLTVLGSRGGGGSGGGGSGGGGSLEMAQVQLVQSGTEVKKPGASVRVACKASGYPFNKYDINWVRQAPGQGLEWMGGIIPIFRTTNYAQKFQGRVTITADESTSTAYMELSSLRSEDTAVYYCAREWFYWDIWGQGTLVTVSS
notes: as for B1
B12: ET200-022 scFv (scFv)
scFv: QSVVTQPPSVSAAPGQKVTISCSGSSSNIGNNYVSWYQQLPGTAPKLLIYDNNKRPSGIPDRFSGSKSGTSATLGITGLQTGDEADYYCGTWDSSLGAPYVFGTGTKVTVLGSRGGGGSGGGGSGGGGSLEMAEVQLVQSWGGSEQPGRSLRLSCAASGFTFDDYAMHWVRQAPGKGLEWVSGISWNSGSIGYADSVKGRFTISRDNAKNSLYLQMNSLRAEDTAMYYCARYRQVGSAYDSWGQGTLVTVSS
notes: as for B1
B13: ET200-023 scFv (scFv)
scFv: LPVLTQPPSVSVAPGKTARITCGGNNIGSKSVHWYQQKPGQAPVLVVYADSDRPSGIPERFSGSNSGNTATLTISRVEAGDEADYYCQVWDSSSYHNYVFGTGTKVTVLGSRGGGGSGGGGSGGGGSLEMAEVQLVQSGAEVKKPGASVKVSCKASGYTFTSYGISWVRQAPGQGLEWMGWISAYNGNTNYAQKLQGRVTMTTDTSTSTAYMELSSLRSEDTAMYYCARYWGFGVSDRWGQGTLVTVSS
notes: as for B1
B14: ET200-039 scFv (scFv)
scFv: NFMLTQPHSVSESPGKTVTISCTRSSGSIASNYVQWYQQRPGSSPTTVIYEDNQRPSGVPDRFSGSIDSSSNSASLTISGLKTEDEADYYCQSYDSSNWVFGGGTKLTVLGSRGGGGSGGGGSGGGGSLEMAEVQLVQSGAEVKKPGSSVKVSCKASGGTFSSYAISWVRQAPGQGLEWMGGIIPIFGTANYAQKFQGRVTITADESTSTAYMELSSLRSEDTAVYYCARSNYYYNDYWGQGTLVTVSS
notes: VL-linker-VH; screened as scFv phage clone; also called ET200-39
B15: ET200-026 scFv (scFv)
scFv: B14 scFv with R24G, S44A, S231N, Y233H
notes: as for B1
B16: ET200-035 scFv (scFv)
scFv: B14 scFv with S44A, S97T, E133Q, S231Y, Y235F
notes: as for B1
B17: ET200-027 scFv (scFv)
scFv: QSVLTQPPSVSGAPGQGVTIPCTGSSSNIGAGYDVHWYQQLPGTAPKLLIYGNNNRPSGVPDRFSGSRSGSSASLAITGLQAEDEADYYCQSYDSSLSDVVFGGGTKVTVLGSRGGGGSGGGGSGGGGSLEMAEVQLVQSGAEVKKPGATVKISCKVSGYTFTDYYMHWVQQAPGKGLEWMGLVDPEDGETIYAEKFQGRVTITADTSTDTAYMELSSLRSEDTAVYYCARYWSYSFDYLYMPEGNDWWGQGTLVTVSS
notes: as for B1
B18: ET200-028 scFv (scFv)
scFv: QSVLTQPPAASGTPGQRVTISCSGGVSNIGSGALNWYQQLPGTAPKLLIYSYNQRPSGVSDRFSGSRSATSASLAISGLQSEDEADYYCATWDDSVNGWVFGGGTKLTVLGSRGGGGSGGGGSGGGGSLEMAQVQLVQSGAEVKKPGDSVKVSCKPSGYNFLNYGINWVRQAPGQGLEWMGWISTYTGNTNYAQKLQGRVTFTTDTSTSTAYMEMRSLRSDDTAVYYCARDLYYYEGVDYWGQGTLVTVSS
notes: as for B1

The binders below were run against T1, human Fc Receptor-Like 5 (FcRL5), full length, expressed on cells (human, UniProt Q96RD9 16-977) (assay: scFv phage: ELISA on His-tag FcRL5, flow cytometry on FcRL5-overexpressing 3T3 and Raji cells).
T1 construct: also called CD307e; IRTA2
T1 sequence: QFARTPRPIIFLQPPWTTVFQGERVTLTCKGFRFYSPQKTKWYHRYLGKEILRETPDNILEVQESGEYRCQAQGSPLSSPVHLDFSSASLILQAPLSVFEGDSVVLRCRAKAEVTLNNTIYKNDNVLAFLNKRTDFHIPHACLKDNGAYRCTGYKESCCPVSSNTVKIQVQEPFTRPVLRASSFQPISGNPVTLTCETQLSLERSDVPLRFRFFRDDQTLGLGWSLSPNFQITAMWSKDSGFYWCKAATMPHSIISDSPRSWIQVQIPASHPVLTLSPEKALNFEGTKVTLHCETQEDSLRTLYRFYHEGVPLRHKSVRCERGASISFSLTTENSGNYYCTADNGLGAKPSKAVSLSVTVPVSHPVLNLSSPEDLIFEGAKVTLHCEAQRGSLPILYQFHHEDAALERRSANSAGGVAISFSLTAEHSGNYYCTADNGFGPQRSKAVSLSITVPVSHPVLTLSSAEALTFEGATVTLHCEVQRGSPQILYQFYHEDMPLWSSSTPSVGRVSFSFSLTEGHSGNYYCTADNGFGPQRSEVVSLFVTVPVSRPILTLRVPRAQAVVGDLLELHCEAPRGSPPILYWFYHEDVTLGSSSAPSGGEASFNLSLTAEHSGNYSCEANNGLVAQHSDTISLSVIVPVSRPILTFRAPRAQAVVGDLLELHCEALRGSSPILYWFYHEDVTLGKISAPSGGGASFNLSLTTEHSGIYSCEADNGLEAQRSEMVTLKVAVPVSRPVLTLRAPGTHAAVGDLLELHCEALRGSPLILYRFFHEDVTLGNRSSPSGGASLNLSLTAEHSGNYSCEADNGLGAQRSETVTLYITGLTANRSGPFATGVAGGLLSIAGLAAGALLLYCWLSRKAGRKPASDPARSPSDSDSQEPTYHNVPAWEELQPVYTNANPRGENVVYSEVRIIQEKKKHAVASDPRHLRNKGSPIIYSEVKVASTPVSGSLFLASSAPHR
B1: binds.
B2: binds.
B3: binds.
B4: binds.
B5: binds.
B6: binds.
B7: binds.
B8: binds.
B9: binds.
B10: binds.
B11: binds.
B12: binds.
B13: binds.
B14: binds.
B15: binds.
B16: binds.
B17: binds.
B18: binds.
